Test results: US20230212643, “DNA NANOARCHITECTURES FOR PATTERN-RECOGNIZED […] OF DISEASES” (RENSSELAER POLYTECHNIC INSTITUTE, published 2023)

Target: Dengue virus envelope protein domain III (ED3), on intact DENV serotype 2 virions (Dengue virus 2 (New Guinea C), UniProt P14340 P14340:576-674)
Experiment: inhibition; plaque reduction on Vero cells, DENV2 NGC in human serum, 37 C
Settings: protein: virion; tags: none
Protocol: The in vitro inhibition of DENV through standard antiviral, plaque forming EC₅₀ assays was also examined. DENV viral particles were incubated with different concentrations of each inhibitor in human serum and the remaining infectivity was determined by a plaque reduction assay. The dose-dependent inhibition of DENV for the monovalent aptamer and each of the scaffold-aptamer complexes was examined (FIG. 5A). The EC₅₀ value (half maximal effective concentration) of the scaffold for DENV infection inhibition was 2 nM, whereas the EC₅₀ value of the monovalent aptamer was 15 μM (FIG. 5B).
For the in vitro inhibition of DENV (EC₅₀ and plaque assays), vero cells were seeded at a density of 3×10⁵ cells/3 mL MEM culture medium (with 10% FBS) in each well of a 6-well plate 72 h prior to infection. Approximately 200 plaque forming units of DENV serotype 2 (DENV2 NGC), after dilution in Hank's Balanced Salt Solution (HBSS) (GIBCO, Grand Island, N.Y.) including 0.4% (w/v) bovine albumin fraction V (BSA fraction V, GIBCO), were incubated at a 1:1 ratio in human serum (with or without an inhibitor). The mixtures were incubated in a 5% CO₂ incubator at 37° C. for 1 h. Then virus-inhibitor or virus-control mixtures were used directly to infect the confluent monolayer of Vero cells or diluted in MEM+2% FBS before being added onto the Vero cell monolayers. The inoculum was 100 μl/well. […]

Dengue virus envelope protein domain III (ED3), on intact DENV serotype 2 virions, sequence (P14340 576-674, one chain of several): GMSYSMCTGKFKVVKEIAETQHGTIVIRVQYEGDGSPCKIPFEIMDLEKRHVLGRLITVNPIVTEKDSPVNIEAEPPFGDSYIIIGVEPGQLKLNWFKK

GCACCGGGAGGGAGGGAGGGCTTTT (ssDNA) [monovalent ED3-binding DNA aptamer] showed an EC50 of 15 µM.
